Results taken from patent publication US20220401536A1 (published 2022).

B1: mouse DD1α (endogenous, on mouse T cells or CD11b+Gr-1+ MDSCs) (receptor, UniProt Q9D659 33-308, looked up)
chain: FKVTTPYSLYVCPEGQNATLTCRILGPVSKGHDVTIYKTWYLSSRGEVQMCKEHRPIRNFTLQHLQHHGSHLKANASHDQPQKHGLELASDHHGNFSITLRNVTPRDSGLYCCLVIELKNHHPEQRFYGSMELQVQAGKGSGSTCMASNEQDSDSITAAALATGACIVGILCLPLILLLVYKQRQVASHRRAQELVRMDSNTQGIENPGFETTPPFQGMPEAKTRPPLSYVAQRQPSESGRYLLSDPSTPLSPPGPGDVFFPSLDPVPDSPNSEAI
B2: anti-DD1α monoclonal antibody 2B11 (antibody, V domains shown)
VH: EVQLVESGGDLVKPGGSLKLSCAASGFTFSNYGMSWVRQTPDKRLEYVATINSGGSYTYYPDSVKGRFTISRDNAKTTLYLQMSSLKSEDTAMYYCARIYDYDGDYYALDYWGQGTSVTVSS
VL: DVLMTQTPLSLPVSLGDQASISCRSSQSIVHTNGNTYLEWYLQKPGQSPKLLIYKVSNRFSGVPDRFSGSGSGTDFTLKISRVEAEDLGVYYCFQGSHVPWTFGGGTKLEIK
notes: Purified from hybridoma; also called DD1α-specific Ab 2B11

Tests used:
[1] = molecular target: mouse PD-1 (endogenous, on mouse CD4+ and CD8+ T cells) (mouse) (UniProt Q02242); experiment: cell-based or functional assay
[2] = molecular target: T1, DD1α-HA (HA-tagged DD1α expressed in 293T cells or on Jurkat cells) (human, UniProt Q9H7M9 33-311); experiment: competition with DD1α-Ig and PD-1-Ig for binding to Jurkat cells transfected with DD1α, flow cytometry
T1 construct: also called Jurkat/DD1α; DD1α-transfected Jurkat cells; not shown: HA tag

Chain of mouse PD-1 (endogenous, on mouse CD4+ and CD8+ T cells) (mouse) (Q02242 25-288): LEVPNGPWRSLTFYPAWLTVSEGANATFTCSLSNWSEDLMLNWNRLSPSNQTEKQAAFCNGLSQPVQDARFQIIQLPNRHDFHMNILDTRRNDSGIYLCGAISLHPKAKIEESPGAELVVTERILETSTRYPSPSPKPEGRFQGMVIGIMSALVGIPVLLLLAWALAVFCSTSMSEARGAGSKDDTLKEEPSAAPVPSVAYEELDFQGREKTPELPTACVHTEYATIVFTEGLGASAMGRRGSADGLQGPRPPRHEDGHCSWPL

| Binder | CFSE- and Far Red-double-positive events: DD1α-/- CD11b+Gr-1+ MDSCs with PD-1-/- CD8+ T cells [1] [%] | CFSE- and Far Red-double-positive events: DD1α-null CD11b+Gr-1+ MDSCs with Wt CD8+ T cells [1] [%] | CFSE- and Far Red-double-positive events: Wt CD11b+Gr-1+ MDSCs with PD-1-/- CD8+ T cells [1] [%] | CFSE- and Far Red-double-positive events: Wt CD11b+Gr-1+ MDSCs with Wt CD8+ T cells [1] [%] | proliferation of CD4+ T cells (CFSE dilution) with DD1α-/- CD11b+Gr-1high MDSCs [1] [%] | proliferation of CD8+ T cells (CFSE dilution) with DD1α-/- CD11b+Gr-1high MDSCs [1] [%] | binding result [2] |
| --- | --- | --- | --- | --- | --- | --- | --- |
| B1 | 1.36 | 7.1 | 6.59 | 22 | 70 | 63 | – |
| B2 | – | – | – | – | – | – | binds |
